Experimental data taken from PMC3821671 (Bacteriophage, 2013).

Biological target: P167L Rho (E. coli, UniProt P0AG30 1-419, P167L)
Test: pull-down

B1: his-tagged WT Psu (polarity suppression protein, bacteriophage P4 capsid decorating protein) (natural protein)
chain: MESTALQQAFDTCQNNKAAWLQRKNELAAAEQEYLRLLSGEGRNVSRLDELRNIIEVRKWQVNQAAGRYIRSHEAVQHISIRDRLNDFMQQHGTALAAALAPELMGYSELTAIARNCAIQRATDALREALLSWLAKGEKINYSAQDSDILTTIGFRPDVASVDDSREKFTPAQNMIFSRKSAQLASRQSV
binding result: binds
